Laboratory results: US20170088602A1 (Bristol-Myers Squibb, published 2017)
Changes are numbered by the printed parent chain. Names may count otherwise.

T1: human myostatin (mature, recombinant; R&D Systems) (human, UniProt O14793 267-375)
T1 construct: biotinylated in the mRNA display selection; also called GDF-8; mature myostatin
T1 sequence: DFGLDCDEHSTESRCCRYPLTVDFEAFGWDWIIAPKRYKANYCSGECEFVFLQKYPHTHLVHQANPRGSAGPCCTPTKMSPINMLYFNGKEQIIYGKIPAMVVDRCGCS

T2: human BMP-11 (GDF-11; R&D Systems) (human, UniProt O95390 299-407)
T2 sequence (looked up): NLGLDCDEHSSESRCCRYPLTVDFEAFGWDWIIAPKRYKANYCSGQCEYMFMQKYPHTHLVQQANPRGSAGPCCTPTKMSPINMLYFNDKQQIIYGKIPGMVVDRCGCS

T3: human Activin A (R&D Systems) (human, UniProt P08476 311-426)
T3 sequence (looked up): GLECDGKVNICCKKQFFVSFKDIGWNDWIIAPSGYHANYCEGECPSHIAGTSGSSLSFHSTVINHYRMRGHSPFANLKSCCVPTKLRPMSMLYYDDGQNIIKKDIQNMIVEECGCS

B1: 1979_B06 (designed binder)
chain: MGVSDVPRDLEVVAATPTSLLISWSLPHAGHVNYYRITYGETGGNSPVQEFTVPGRGVTATISGLKPGVDYTITVYAVTLTKSQMIHYMPISINYRTEIDKPSQHHHHHH
notes: monoAdnectin with His6 tag; also called ATI-1133
B2: 2524_H11 (designed binder)
chain: B1 chain with V32A, N33H, L80V, T81S, K82S, S83T, Q84K, M85V, H87V, M89L
B3: 2524_E10 (designed binder)
chain: B1 chain with H28F, V32L, K82R, Q84K, M85I
B4: 2524_C11 (designed binder)
chain: B1 chain with S25T, H31L, V32A, N33H, K82N, Q84E, M85I, H87L, M89K
B5: 2525_D05 (designed binder)
chain: B1 chain with H28Y, V32L, M85L
B6: ATI-1359 [40K 2-branch PEG] (designed binder)
chain: MGVSDVPRDLEVVAATPTSLLISWTLPHAGRAHYYRITYGETGGNSPVQEFTVPGRGVTATISGLKPGVDYTITVYAVTVTTTKVIHYKPISINYRTEGSGC
modifications: 40K 2-branch PEG on the Cys of the EGSGC tail
B7: ATI-1379 [40K 2-branch PEG] (designed binder)
chain: MGVSDVPRDLEVVAATPTSLLISWSLPHQGKANYYRITYGETGGNSPVQEFTVPGRGVTATISGLKPGVDYTITVYAVTVTDTGYLKYKPISINYRTEGSGCHHHHHH
modifications: 40K 2-branch PEG on the Cys of the EGSGC tail
B8: 2062_G02 (designed binder)
chain: MGVSDVPRDLEVVAATPTSLLISWVSPRGRARYYRITYGETGGNSPVQEFTVPGRGSTATISGLKPGVDYTITVYAVTIYRDGMSHHDPISINYRTEIDKPSQHHHHHH
notes: also called ATI-1134
B9: 2523_G06 (designed binder)
chain: B8 chain with V25W, S26A, R28L, R30L, Y80F, D82T, S85V, H86Q, H87Y
B10: ATI-1376 [40K 2-branch PEG] (designed binder)
chain: MGVSDVPRDLEVVAATPTSLLISWDAPAGLARYYRITYGETGGNSPVQEFTVVGRGNTATISGLKPGVDYTITVYAVTIFRDGPVTWDPISINYRTEGSGCHHHHHH
modifications: 40K 2-branch PEG on the Cys of the EGSGC tail
notes: cysteine mutant of 3115_E06
B11: ATI-1375 [40K 2-branch PEG] (designed binder)
chain: B10 chain with A28R, V53F, N57T, F80D, P84T, V85R, T86S, W87F
modifications: 40K 2-branch PEG on the Cys of the EGSGC tail
notes: cysteine mutant of 3115_D04
B12: ATI-1377 [40K 2-branch PEG] (designed binder)
chain: B10 chain with A28K
modifications: 40K 2-branch PEG on the Cys of the EGSGC tail
B13: ATI-1107 [40K 2-branch PEG] (designed binder)
chain: MGVSDVPRDLEVVAATPTSLLISWSLPHAGHVNYYRITYGETGGNSPVQEFTVPGRGVTATISGLKPGVDYTITVYAVTLTKSQMIHYMPISINYRTGSGCHHHHHH
modifications: 40K 2-branch PEG on the Cys of the GSGC tail
notes: cysteine mutant of 1979_B06
B14: 3116_A06 G30A (designed binder)
chain: MGVSDVPRDLEVVAATPTSLLISWSLPHQAKANYYRITYGETGGNSPVQEFTVPGRGVTATISGLKPGVDYTITVYAVTVTDTGYLKYKPISINYRTEIDKPSQHHHHHH
B15: 3116_A06 N33A (designed binder)
chain: B14 chain with A30G, N33A
B16: 3116_A06 P27A (designed binder)
chain: B14 chain with P27A, A30G
B17: 3116_A06 L26A (designed binder)
chain: B14 chain with L26A, A30G
B18: 3116_A06 L86A (designed binder)
chain: B14 chain with A30G, L86A
B19: 3116_A06 Y85A (designed binder)
chain: B14 chain with A30G, Y85A
B20: 3116_A06 H28A (designed binder)
chain: B14 chain with H28A, A30G
B21: 3116_A06 V80A (designed binder)
chain: B14 chain with A30G, V80A
B22: 3116_A06 Y88A (designed binder)
chain: B14 chain with A30G, Y88A

Each binder was assayed against T1, human myostatin (mature, recombinant; …) (assay: SPR format A, 25C).
Description: (§1) Anti-human Fc antibody (Biacore/GE) was immobilized on a Biacore CM5 chip via NHS/EDC coupling according to the manufacturer's instructions. […] A concentration range of anti-myostatin Adnectin was applied across all flow cells in HBSP running buffer. Regeneration of the chip surface between cycles was accomplished with two 30 second pulses of 3M MgCl₂. Kinetic traces of reference-subtracted sensorgrams were fit to a 1:1 binding model using Biaevaluation software.

Row | Kd | Binder
1 | 29 nM | B1
2 | 1.12 nM | B2
3 | 1.34 nM | B3
4 | 0.62 nM | B4
5 | 1.28 nM | B5
6 | 7.9 nM | B6
7 | 9.5 nM | B7
8 | 48.8 nM | B8
9 | 1.47 nM | B9
10 | 8.21 nM | B10
11 | 12.6 nM | B11
12 | 8.21 nM | B12
13 | 128 nM | B13

Each binder was assayed against T2, human BMP-11 (GDF-11; R&D Systems) (assay: SPR format A, 25C).
Description: as §1

Row | Kd | Binder
14 | 489 nM | B1
15 | 1.22 nM | B2
16 | 1.42 nM | B3
17 | 0.67 nM | B4
18 | 1.99 nM | B5
19 | 35.5 nM | B6
20 | 21.6 nM | B7
21 | 697 nM | B8
22 | 10.7 nM | B9
23 | 13.4 nM | B10
24 | 33.2 nM | B11
25 | 14.2 nM | B12
26 | ~300 nM | B13

These binders were tested against T3, human Activin A (R&D Systems) (assay: SPR format A, 25C).
Description: as §1

Row | binding result | Binder
27 | no binding | B1
28 | no binding | B2
29 | no binding | B3
30 | no binding | B4
31 | no binding | B5
32 | no binding | B8
33 | no binding | B9
34 | no binding | B13

These binders were tested against T1, human myostatin (mature, recombinant; …) (assay: cell-based or functional assay).

Row | ARE-luciferase cell-based assay, IC50 relative to parent sequence | Binder
35 | > 10 fold | B14
36 | > 10 fold | B15
37 | > 10 fold | B16
38 | > 10 fold | B17
39 | > 10 fold | B18
40 | > 10 fold | B19
41 | > 10 fold | B20

Target: T1, human myostatin (mature, recombinant; …)
Assay: cell-based or functional assay
Remark: another data set of the same source

Row | ARE-luciferase IC50 | Binder
42 | 0.11 nM | B1
43 | 0.03 nM | B2
44 | 0.09 nM | B3
45 | 0.1 nM | B4
46 | 0.11 nM | B5
47 | 205 nM | B8
48 | 4.2 nM | B9

The binders below were run against T2, human BMP-11 (GDF-11; R&D Systems) (assay: cell-based or functional assay).

Row | ARE-luciferase IC50 | Binder
49 | 3.3 nM | B1
50 | 6.2 nM | B2
51 | 5.6 nM | B3
52 | 0.89 nM | B4
53 | 3.9 nM | B5
54 | 1500 nM | B8
55 | 46 nM | B9

These binders were tested against T3, human Activin A (R&D Systems) (assay: cell-based or functional assay).

Row | ARE-luciferase IC50 | Binder
56 | 194 nM | B1
57 | > 1000 nM | B2
58 | > 1000 nM | B3
59 | 765 nM | B4
60 | > 1000 nM | B5
61 | > 1500 nM | B8
62 | > 2000 nM | B9

Target: T1, human myostatin (mature, recombinant; …)
Assay: cell-based or functional assay
Remark: another data set of the same source

Row | ARE-luciferase IC50 | Binder
63 | 0.26 nM | B6
64 | 0.1 nM | B7
65 | 0.03 nM | B10
66 | 0.17 nM | B11
67 | 0.05 nM | B12
68 | 19 nM | B13

Target: T2, human BMP-11 (GDF-11; R&D Systems)
Assay: cell-based or functional assay
Remark: another data set of the same source

Row | ARE-luciferase IC50 | Binder
69 | 3.1 nM | B6
70 | 4.3 nM | B7
71 | 0.83 nM | B10
72 | 1.6 nM | B11
73 | 0.78 nM | B12
74 | 888 nM | B13

Target: T3, human Activin A (R&D Systems)
Assay: cell-based or functional assay
Remark: another data set of the same source

Row | ARE-luciferase IC50 | Binder
75 | > 1000 nM | B6
76 | > 1000 nM | B7
77 | > 1000 nM | B10
78 | > 1000 nM | B11
79 | > 1000 nM | B12
80 | > 2000 nM | B13

Target: T1, human myostatin (mature, recombinant; …)
Assay: cell-based or functional assay
Remark: another data set of the same source

Row | pSmad2 IC50, 12-point | Binder
81 | 12.8 nM | B1
82 | 0.11 nM | B2
83 | 0.13 nM | B3
84 | 0.14 nM | B4
85 | 0.2 nM | B5
86 | 59.1 nM | B8
87 | 0.78 nM | B9

Target: T1, human myostatin (mature, recombinant; …)
Assay: cell-based or functional assay
Remark: another data set of the same source

Row | Myostatin ARE-luc IC50 | Binder
88 | 40 nM | B14
89 | 9.8 nM | B15
90 | 10 nM | B16
91 | 16 nM | B17
92 | 12 nM | B18
93 | 5.5 nM | B19
94 | > 100 nM | B21
95 | > 100 nM | B22
96 | 6.2 nM | B20

What follows are binders tested against T1, human myostatin (mature, recombinant; …) (assay: competitive HTRF, alanine scan).

Row | IC50 | Binder
97 | 5.1 nM | B14
98 | 2 nM | B15
99 | 1 nM | B16
100 | 2.3 nM | B17
101 | 1.4 nM | B18
102 | 2 nM | B19
103 | 4 nM | B21
104 | 11 nM | B22
105 | 0.8 nM | B20

What follows are binders tested against T1, human myostatin (mature, recombinant; …) (assay: competitive HTRF (1889E01/myostatin/ActRIIb-Fc sandwich)).
Description: An HTRF assay was used to measure the binding affinities of anti-myostatin Adnectins to myostatin. […] The Eu-W 1024 labeled Streptavidin is used to bind biotinylated 1889E01. […] In the presence of a competitive Adnectin, the HTRF signal decreases.

Row | IC50 | Binder
106 | 0.36 nM | B6
107 | 0.28 nM | B7
108 | 0.32 nM | B10
109 | 0.76 nM | B11
110 | 0.15 nM | B12

Each binder was assayed against T1, human myostatin (mature, recombinant; …) (assay: HTRF competition binding assay, alanine mutant against 3116_A06).

Row | fold increase in IC50 relative to the parental sequence (WT) | Binder
111 | > 10 fold | B14
112 | > 10 fold | B21
113 | > 10 fold | B22
